Laboratory results: patent publication US20160136234A1

Assays:
Assay in all cases: cell-based or functional assay
Ret (V804L) (h) (human) = biological target: T1, Ret (V804L) (h) (human) (UniProt P07949)
T1 sequence (looked up): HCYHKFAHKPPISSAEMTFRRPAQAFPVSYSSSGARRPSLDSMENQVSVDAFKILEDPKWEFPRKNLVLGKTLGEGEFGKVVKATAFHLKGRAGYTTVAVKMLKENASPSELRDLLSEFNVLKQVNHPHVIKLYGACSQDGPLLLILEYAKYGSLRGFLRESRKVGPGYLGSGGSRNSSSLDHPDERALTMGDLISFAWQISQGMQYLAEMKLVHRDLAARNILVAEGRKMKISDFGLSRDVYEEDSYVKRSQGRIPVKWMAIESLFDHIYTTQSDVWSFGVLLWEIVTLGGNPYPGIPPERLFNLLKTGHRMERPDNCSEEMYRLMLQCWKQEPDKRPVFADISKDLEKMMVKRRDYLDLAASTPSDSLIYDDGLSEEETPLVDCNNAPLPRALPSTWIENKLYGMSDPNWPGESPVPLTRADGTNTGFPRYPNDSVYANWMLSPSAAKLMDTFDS

NEK11 (h) (human) = biological target: T2, NEK11 (h) (human) (UniProt Q8NG66)
T2 sequence (looked up): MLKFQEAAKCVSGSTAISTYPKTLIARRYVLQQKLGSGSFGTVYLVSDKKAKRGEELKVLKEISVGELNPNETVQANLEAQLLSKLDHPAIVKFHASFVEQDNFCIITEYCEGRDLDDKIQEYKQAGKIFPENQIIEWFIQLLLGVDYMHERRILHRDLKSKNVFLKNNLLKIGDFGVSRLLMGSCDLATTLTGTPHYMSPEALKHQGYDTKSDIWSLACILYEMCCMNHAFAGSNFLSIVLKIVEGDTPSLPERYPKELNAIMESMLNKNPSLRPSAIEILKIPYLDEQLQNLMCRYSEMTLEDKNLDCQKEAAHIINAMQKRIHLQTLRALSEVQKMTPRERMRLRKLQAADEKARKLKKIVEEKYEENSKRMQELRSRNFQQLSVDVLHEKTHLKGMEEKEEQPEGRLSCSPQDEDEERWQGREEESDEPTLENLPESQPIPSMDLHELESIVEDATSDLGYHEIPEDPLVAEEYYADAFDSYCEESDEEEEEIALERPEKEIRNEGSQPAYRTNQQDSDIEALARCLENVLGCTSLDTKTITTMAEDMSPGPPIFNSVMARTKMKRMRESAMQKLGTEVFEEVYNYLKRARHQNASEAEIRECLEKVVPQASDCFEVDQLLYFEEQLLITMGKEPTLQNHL

CK1γ3 (h) (human) = CK1γ3 (h) (human) (UniProt Q9Y6M4)
Met(D1246N) (h) (human) = Met(D1246N) (h) (human) (UniProt P08581)
[1] = biological target: Calcium/Calmodulin-Dependent Protein Kinase I (human) (UniProt Q14012)
FGFR4 (h) (human) = FGFR4 (h) (human) (UniProt P22455)
Chain of FGFR4 (h) (human) (P22455 460-802 limits assumed): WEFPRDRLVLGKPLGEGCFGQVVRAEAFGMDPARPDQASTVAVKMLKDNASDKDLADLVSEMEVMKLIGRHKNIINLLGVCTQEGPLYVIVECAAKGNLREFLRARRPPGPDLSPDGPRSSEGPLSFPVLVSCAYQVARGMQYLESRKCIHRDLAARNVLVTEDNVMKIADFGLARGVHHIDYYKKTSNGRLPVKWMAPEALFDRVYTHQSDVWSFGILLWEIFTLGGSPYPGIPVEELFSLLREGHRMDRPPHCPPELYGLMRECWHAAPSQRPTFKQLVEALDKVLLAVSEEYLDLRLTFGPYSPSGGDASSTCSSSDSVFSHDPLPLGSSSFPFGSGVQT

[2] = biological target: PDGFRα (V561D) (h) (human) (UniProt P16234)
Chain of PDGFRα (V561D) (h) (human) (P16234 550-1089 V561D limits assumed): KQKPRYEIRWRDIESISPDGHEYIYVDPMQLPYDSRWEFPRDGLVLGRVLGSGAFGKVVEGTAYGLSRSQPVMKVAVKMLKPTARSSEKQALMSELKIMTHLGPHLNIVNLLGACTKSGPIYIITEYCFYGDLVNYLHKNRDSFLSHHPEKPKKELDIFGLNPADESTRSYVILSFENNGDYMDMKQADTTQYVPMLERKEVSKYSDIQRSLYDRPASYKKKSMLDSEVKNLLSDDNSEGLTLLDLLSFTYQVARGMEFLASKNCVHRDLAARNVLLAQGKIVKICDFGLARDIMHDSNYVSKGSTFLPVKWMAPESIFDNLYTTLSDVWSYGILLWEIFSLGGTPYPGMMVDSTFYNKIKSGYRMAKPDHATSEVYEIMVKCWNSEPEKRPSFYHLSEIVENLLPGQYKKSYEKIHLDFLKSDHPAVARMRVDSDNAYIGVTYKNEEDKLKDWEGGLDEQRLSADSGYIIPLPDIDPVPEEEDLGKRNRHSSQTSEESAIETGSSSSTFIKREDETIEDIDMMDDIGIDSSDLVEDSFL

CLK3 (h) (human) = CLK3 (h) (human) (UniProt P49761)
NLK (h) (human) = biological target: T3, NLK (h) (human) (UniProt Q9UBE8)
T3 sequence (looked up): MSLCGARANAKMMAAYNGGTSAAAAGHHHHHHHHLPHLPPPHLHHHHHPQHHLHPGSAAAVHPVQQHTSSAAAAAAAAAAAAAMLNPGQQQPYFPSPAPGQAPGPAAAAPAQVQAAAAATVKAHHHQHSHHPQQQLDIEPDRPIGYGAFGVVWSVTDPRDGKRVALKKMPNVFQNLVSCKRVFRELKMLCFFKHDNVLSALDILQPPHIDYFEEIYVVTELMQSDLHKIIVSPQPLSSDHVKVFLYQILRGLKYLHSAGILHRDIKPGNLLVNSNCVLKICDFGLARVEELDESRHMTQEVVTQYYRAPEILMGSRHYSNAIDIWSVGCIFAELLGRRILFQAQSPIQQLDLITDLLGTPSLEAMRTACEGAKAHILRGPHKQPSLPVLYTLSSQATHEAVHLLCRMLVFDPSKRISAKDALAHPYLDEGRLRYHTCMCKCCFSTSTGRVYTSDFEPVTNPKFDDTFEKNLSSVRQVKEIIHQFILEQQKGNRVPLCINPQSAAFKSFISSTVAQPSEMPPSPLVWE

TAO2 (h) (human) = biological target: T4, TAO2 (h) (human) (UniProt Q9UL54)
T4 sequence (looked up): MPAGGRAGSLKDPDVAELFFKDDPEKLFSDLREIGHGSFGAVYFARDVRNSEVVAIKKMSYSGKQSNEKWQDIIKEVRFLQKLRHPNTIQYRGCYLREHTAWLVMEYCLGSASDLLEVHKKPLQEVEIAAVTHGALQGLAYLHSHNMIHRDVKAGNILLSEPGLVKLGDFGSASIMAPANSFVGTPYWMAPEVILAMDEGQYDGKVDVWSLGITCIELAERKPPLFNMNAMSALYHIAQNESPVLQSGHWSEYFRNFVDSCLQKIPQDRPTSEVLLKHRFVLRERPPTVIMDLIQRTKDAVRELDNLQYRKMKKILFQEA

Flt3 (h) (human) = biological target: T5, Flt3 (h) (human) (UniProt P36888)
T5 sequence (looked up): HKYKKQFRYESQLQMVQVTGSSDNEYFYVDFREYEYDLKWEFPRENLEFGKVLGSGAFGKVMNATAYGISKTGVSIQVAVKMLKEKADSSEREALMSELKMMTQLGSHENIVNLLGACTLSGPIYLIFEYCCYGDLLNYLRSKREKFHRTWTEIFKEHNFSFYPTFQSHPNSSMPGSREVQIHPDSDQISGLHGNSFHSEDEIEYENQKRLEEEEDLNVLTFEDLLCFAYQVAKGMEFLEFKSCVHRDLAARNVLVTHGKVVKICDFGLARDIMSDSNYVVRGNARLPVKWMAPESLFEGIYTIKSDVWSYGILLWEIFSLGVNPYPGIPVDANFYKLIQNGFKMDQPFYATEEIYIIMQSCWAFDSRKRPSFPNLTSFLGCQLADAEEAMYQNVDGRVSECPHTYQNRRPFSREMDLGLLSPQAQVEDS

MINK (h) (human) = MINK (h) (human) (UniProt Q8N4C8)
p70S6K (h) (human) = p70S6K (h) (human) (UniProt P23443)
Ron (h) (human) = Ron (h) (human) (UniProt Q04912)
Chain of Ron (h) (human) (Q04912 983-1400 limits assumed): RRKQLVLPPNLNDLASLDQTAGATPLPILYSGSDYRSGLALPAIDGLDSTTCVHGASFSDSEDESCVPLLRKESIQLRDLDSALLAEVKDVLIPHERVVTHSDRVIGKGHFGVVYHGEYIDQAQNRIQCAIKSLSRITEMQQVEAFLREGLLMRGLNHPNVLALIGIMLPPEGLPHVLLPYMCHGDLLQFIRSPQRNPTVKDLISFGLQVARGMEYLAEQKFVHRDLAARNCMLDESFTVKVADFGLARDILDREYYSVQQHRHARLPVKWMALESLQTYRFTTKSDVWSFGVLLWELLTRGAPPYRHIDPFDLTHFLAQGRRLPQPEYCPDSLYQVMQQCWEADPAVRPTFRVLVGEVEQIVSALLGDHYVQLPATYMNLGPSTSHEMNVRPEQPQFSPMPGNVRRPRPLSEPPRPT

PDGFRα (h) (human) = PDGFRα (h) (human) (UniProt P16234)
Chain of PDGFRα (h) (human) (P16234 550-1089 limits assumed): as the sequence (P16234 550-1089 V561D limits assumed) above, with D12V counted along it

HIPK3 (h) (human) = HIPK3 (h) (human) (UniProt Q9H422)

% activity at 100 µM (Ret (V804L) (h) (human)): 79%
% activity at 100 µM (NEK11 (h) (human)): 53%
% activity at 100 µM (CK1γ3 (h) (human)): 125%
% activity at 100 µM (Met(D1246N) (h) (human)): 82%
% activity at 100 µM [1]: 1%
% activity at 100 µM (FGFR4 (h) (human)): 28%
% activity at 100 µM [2]: 82%
% activity at 100 µM (CLK3 (h) (human)): 61%
% activity at 100 µM (NLK (h) (human)): 87%
% activity at 100 µM (TAO2 (h) (human)): 70%
% activity at 100 µM (Flt3 (h) (human)): 84%
% activity at 100 µM (MINK (h) (human)): 48%
% activity at 100 µM (p70S6K (h) (human)): 35%
% activity at 100 µM (Ron (h) (human)): 93%
% activity at 100 µM (PDGFRα (h) (human)): 65%
% activity at 100 µM (HIPK3 (h) (human)): 93%
Substance: MMI-0300 (peptide)
